# Data as given in PMC4156298, “Characterization of the PH1704 Protease from Pyrococcus horikoshii OT3 and the Critical Functions of Tyr120” (PLoS ONE, 2014).
# Tests used:
# [1] = substrate: Cc1cc(=O)oc2cc(NC(=O)[C@@H](N)CCCNC(=N)N)ccc12; experiment: fluorescence of released amc, Hill equation fit; format: biochemical, Pyrococcus horikoshii; settings: 50 mM sodium phosphate pH 7.5, 358 K, 60 min, aminopeptidase, 85.0 °C
# Source text: fluorescence of released amc, Hill equation fit on PH1704 protease
# [2] = target: the molecule itself; experiment: native gel or EMSA; non-denaturing PAGE (10% resolving gel, 5% stacking gel), Coomassie stain and anti-His western blot; size read against a high molecular weight protein marker
Protein,Km [1],kcat [1],kcat/Km [1],stoichiometry N [2]
"recombinant PH1704 protease from Pyrococcus horikoshii OT3 (enzyme, UniProt O59413 1-166, looked up, PH1704 protease, Pyrococcus horikoshii OT3, gene amplified from genomic DNA with primers at the start and at the stop codon, cloned NdeI/BamHI into pET-15b; The tag is known from detection with an anti-His tag antibody; also called WT; source: E. coli BL21 (DE3), purified (heat incubation at 80°C, Sephacryl S-200); copies: 12) MKVLFLTANEFEDVELIYPYHRLKEEGHEVYIASFERGTITGKHGYSVKVDLTFDKVNPEEFDALVLPGGRAPERVRLNEKAVSIARKMFSEGKPVASICHGPQILISAGVLRGRKGTSYPGIKDDMINAGVEWVDAEVVVDGNWVSSRVPADLYAWMREFVKLLK",12 ± 0.65 µM,0.0108 ± 0.000833 s⁻¹,867 ± 133 M⁻¹ s⁻¹,12
"PH1704 protease (Pyrococcus horikoshii OT3; Y120P) (protein, full-length gene in pET-15b (NdeI/BamHI), His-tag (detected by anti-His western blot), E. coli BL21(DE3); heat step and Sephacryl S-200) MKVLFLTANEFEDVELIYPYHRLKEEGHEVYIASFERGTITGKHGYSVKVDLTFDKVNPEEFDALVLPGGRAPERVRLNEKAVSIARKMFSEGKPVASICHGPQILISAGVLRGRKGTSPPGIKDDMINAGVEWVDAEVVVDGNWVSSRVPADLYAWMREFVKLLK",11.3 ± 0.59 µM,0.0728 ± 0.002 s⁻¹,6630 ± 417 M⁻¹ s⁻¹,
"PH1704 protease (Pyrococcus horikoshii OT3; Y120S) (protein, full-length gene in pET-15b (NdeI/BamHI), His-tag (detected by anti-His western blot), E. coli BL21(DE3); heat step and Sephacryl S-200) MKVLFLTANEFEDVELIYPYHRLKEEGHEVYIASFERGTITGKHGYSVKVDLTFDKVNPEEFDALVLPGGRAPERVRLNEKAVSIARKMFSEGKPVASICHGPQILISAGVLRGRKGTSSPGIKDDMINAGVEWVDAEVVVDGNWVSSRVPADLYAWMREFVKLLK",9.0 ± 0.43 µM,0.00245 ± 0.000167 s⁻¹,400 ± 66.7 M⁻¹ s⁻¹,
"PH1704 protease (Pyrococcus horikoshii OT3; Y120W) (protein, full-length gene in pET-15b (NdeI/BamHI), His-tag (detected by anti-His western blot), E. coli BL21(DE3); heat step and Sephacryl S-200) MKVLFLTANEFEDVELIYPYHRLKEEGHEVYIASFERGTITGKHGYSVKVDLTFDKVNPEEFDALVLPGGRAPERVRLNEKAVSIARKMFSEGKPVASICHGPQILISAGVLRGRKGTSWPGIKDDMINAGVEWVDAEVVVDGNWVSSRVPADLYAWMREFVKLLK",20.6 ± 0.77 µM,0.02 ± 0.00117 s⁻¹,1100 ± 83.3 M⁻¹ s⁻¹,
